According to the RNAGym collection of RNA variant scans (doi:10.1073/pnas.2313332121):

B1: TPR t1 (parent)
chain: GACCAAUCUGCCCUCAGAGCUCGAGAACAUCUUCGGAUGCAGAGGAGGCAGGCUUCGGUGGCGCGAUAGCGCCAACGUCCUCAACCUCCAAUGCAUCCCACCACAUGAUGAUGCCUGAAGAGCCUUGGUUUUUUG

Variants of: B1
Test: polymerase ribozyme fitness, log enrichment relative to wild type (log ratio); higher = more active; in vitro selection for triplet polymerase activity
In short: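 A single round of triplicate in vitro selection, including frozen incubation at −7 °C, was applied to PCR-built, transcribed mutant libraries of each subunit of a heterodimeric triplet polymerase ribozyme. Illumina sequencing of input and output libraries retained genotypes with ≥10 input reads and ≥1 read per output. Fitness is the base-2 logarithm of genotype enrichment divided by wild-type enrichment, from inverse-variance-weighted replicate averages.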

Going from A46C U125A to G47C C82U C114A, the “polymerase ribozyme fitness (log ratio)” value falls from -1.48 to -2.65.

First: A46U G120A
Second: G47C A90U G128C
The “polymerase ribozyme fitness (log ratio)” value of the first is higher: -0.14 for the first, -5.03 for the second.

First: A46G G60U C94U
Second: A46U A66G C123A
The “polymerase ribozyme fitness (log ratio)” value of the first is higher: -1.81 for the first, -2.03 for the second.

Going from A46G G71U to G47C C73U C102U G127U, the “polymerase ribozyme fitness (log ratio)” value falls from -1.19 to -5.08.

Compared with G47C C94U, A46C C64A is lower in “polymerase ribozyme fitness (log ratio)” value: -1.71 for the first, -5.98 for the second.

Going from A46U C62A A68G G110A to A46C C72U U78C G93U G122A U133G, the “polymerase ribozyme fitness (log ratio)” value rises from -5.73 to -3.05.

Going from A46U C73U G110A to G47A C56U U78A C124A U131A, the “polymerase ribozyme fitness (log ratio)” value rises from -2.67 to 1.41.

Compared with A46C U92C U106G C115U U125G U132A, G47A U112G G117A is higher in “polymerase ribozyme fitness (log ratio)” value: -6.92 for the first, -3.86 for the second.

Going from A46U C56U C72G C123G to A46C C62G, the “polymerase ribozyme fitness (log ratio)” value rises from -3.53 to -2.43.

Compared with G47A C62U G113U, A46G A50U C88A C89A C124A U133A is higher in “polymerase ribozyme fitness (log ratio)” value: -4.52 for the first, -0.0922 for the second.

First: A46U C72U
Second: A46U A74U U87G G93A C98U
The “polymerase ribozyme fitness (log ratio)” value of the first is higher: -1.53 for the first, -2.38 for the second.

Going from G47A C49A G60C G93A G113C G127U to A46C U54A A66C U87G G113U, the “polymerase ribozyme fitness (log ratio)” value rises from -6.14 to -5.68.

First: G47A G69C C73U U106A
Second: A46U U54G C82A G110U
The “polymerase ribozyme fitness (log ratio)” value of the first is higher: -2.08 for the first, -3.02 for the second.

Going from A46C U78C C101G to G47C C62U, the “polymerase ribozyme fitness (log ratio)” value rises from -2.77 to -1.21.

First: A46G C56A C62G U130G U131C
Second: A46U G60C C114A
The “polymerase ribozyme fitness (log ratio)” value of the first is lower: -4.26 for the first, -2.44 for the second.

Compared with A46G C79A A91U A105U C124A U125A, G47C C86A is higher in “polymerase ribozyme fitness (log ratio)” value: -6.73 for the first, -0.437 for the second.

Compared with A46U C123A, A46U C123U is higher in “polymerase ribozyme fitness (log ratio)” value: -0.661 for the first, 0.165 for the second.

First: A46C U92C
Second: G47C C49G U55G C73G C97A A119G
The “polymerase ribozyme fitness (log ratio)” value of the first is higher: -1.97 for the first, -5.16 for the second.

First: A46C G47U
Second: G47A C73A
The “polymerase ribozyme fitness (log ratio)” value of the first is lower: -5.94 for the first, -0.495 for the second.

Going from A46U G47A C72U A121G U130C to A46G C97U C114G, the “polymerase ribozyme fitness (log ratio)” value falls from 0.526 to -4.73.

Going from G47C A111G to A46U C98G, the “polymerase ribozyme fitness (log ratio)” value falls from -2.34 to -6.78.

Going from G47A G71U to G47A G71A, the “polymerase ribozyme fitness (log ratio)” value falls from -0.472 to -2.02.

Going from A46U A74G C101A to G47C C70A U131G, the “polymerase ribozyme fitness (log ratio)” value falls from -3.42 to -4.27.

First: G47A C76G C114G
Second: A46U U55A A121G
The “polymerase ribozyme fitness (log ratio)” value of the first is lower: -3.13 for the first, 0.98 for the second.

Compared with A46U G71A G93A G120A G122A, A46C U54A is higher in “polymerase ribozyme fitness (log ratio)” value: -3.97 for the first, -0.931 for the second.

Going from A46C C114U U130G to A46G G48A, the “polymerase ribozyme fitness (log ratio)” value rises from -3.02 to -0.934.

Going from A46U C73G U133G to G47A U87A, the “polymerase ribozyme fitness (log ratio)” value rises from -1.42 to -0.715.

Going from A46G C56G to A46G C56A, the “polymerase ribozyme fitness (log ratio)” value falls from 0.084 to -0.525.

Compared with A46G C56U, G47A G58C G71U C79U U130C is lower in “polymerase ribozyme fitness (log ratio)” value: -0.0715 for the first, -0.309 for the second.

First: G47A G77U
Second: G47A U106A U133A
The “polymerase ribozyme fitness (log ratio)” value of the first is higher: -0.132 for the first, -1.13 for the second.

Going from A46G C80U C94U to G47A C53A C97A A119G C123A, the “polymerase ribozyme fitness (log ratio)” value falls from -1.95 to -4.34.

Compared with G47C C86G C124A, G47A U92C G127A is lower in “polymerase ribozyme fitness (log ratio)” value: 1 for the first, -5.01 for the second.

Compared with G47C C49A A111U, A46U G77A G127C is higher in “polymerase ribozyme fitness (log ratio)” value: -5.94 for the first, -2.57 for the second.

Compared with A46C C72A, A46C C72U is lower in “polymerase ribozyme fitness (log ratio)” value: 0.257 for the first, -1.13 for the second.

Compared with G47A C64U, A46U A74U is higher in “polymerase ribozyme fitness (log ratio)” value: -2.13 for the first, -0.906 for the second.

First: A46U U54G G69U U78C G117U
Second: A46U G77A A95G
The “polymerase ribozyme fitness (log ratio)” value of the first is lower: -4.42 for the first, -1.31 for the second.

Going from G47A U96A to G47A C85A G117C A121C, the “polymerase ribozyme fitness (log ratio)” value falls from -1.93 to -5.39.

Compared with G47A U59C C79G G120A G128A G135U, G47C A90G is higher in “polymerase ribozyme fitness (log ratio)” value: -5.95 for the first, -1.06 for the second.

Going from A46U C70A G120U to A46G C104A G113A, the “polymerase ribozyme fitness (log ratio)” value falls from -1.59 to -2.84.

Compared with A46U A74U A119G, G47A A50U C73U C124U U132A is lower in “polymerase ribozyme fitness (log ratio)” value: 0.444 for the first, -0.0565 for the second.

Compared with G47A U96A U126C, A46C G63A U96A is higher in “polymerase ribozyme fitness (log ratio)” value: -3.31 for the first, -2.58 for the second.

Compared with A46C G93U, G47A G48C G52U C62G C79U is lower in “polymerase ribozyme fitness (log ratio)” value: -1.86 for the first, -5.83 for the second.
